This note sets out measurements from patent publication US20260015426A1 (23ANDME, published 2026).

By EC50 is commonly meant the concentration giving half of the maximal effect. Read a high EC50 as a less potent agent. By Kd is commonly meant the constant that tells how readily two partners part at equilibrium. As usually defined, the koff is the rate constant with which the complex falls apart. The low end stands for slow dissociation, the high end for fast dissociation. As a reminder, the kon is a measure of how fast the partners come together. Low values mean slower complex formation, high ones faster complex formation.

The target in assay [1] is T1, human IL1RAP (hu-IL1RAP) on human cells (human, UniProt Q9NPH3 21-570).
T1 sequence: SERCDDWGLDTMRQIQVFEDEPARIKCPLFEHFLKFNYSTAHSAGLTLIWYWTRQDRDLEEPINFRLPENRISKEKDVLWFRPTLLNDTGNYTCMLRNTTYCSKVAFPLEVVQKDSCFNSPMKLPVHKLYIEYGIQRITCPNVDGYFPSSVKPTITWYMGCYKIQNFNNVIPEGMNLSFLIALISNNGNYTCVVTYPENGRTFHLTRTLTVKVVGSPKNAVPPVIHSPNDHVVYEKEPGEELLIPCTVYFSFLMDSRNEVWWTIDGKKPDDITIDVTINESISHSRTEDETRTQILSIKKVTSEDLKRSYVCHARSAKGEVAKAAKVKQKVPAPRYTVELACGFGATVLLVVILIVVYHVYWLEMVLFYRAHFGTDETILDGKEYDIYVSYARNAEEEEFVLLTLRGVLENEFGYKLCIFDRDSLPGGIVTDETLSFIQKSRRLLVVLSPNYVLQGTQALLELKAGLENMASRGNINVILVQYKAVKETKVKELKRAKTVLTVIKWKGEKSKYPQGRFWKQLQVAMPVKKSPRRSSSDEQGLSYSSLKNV
The assay can be described thus: cell-based or functional assay.

Assay [2] addresses T1, human IL1RAP (hu-IL1RAP) on human cells. The assay can be described thus: cell-based or functional assay. The source holds these as a separate data set.
The target of assay [3] is T2, hu-M-IL1RAP-D3 construct, positions K238-T367 (human).
T2 chain: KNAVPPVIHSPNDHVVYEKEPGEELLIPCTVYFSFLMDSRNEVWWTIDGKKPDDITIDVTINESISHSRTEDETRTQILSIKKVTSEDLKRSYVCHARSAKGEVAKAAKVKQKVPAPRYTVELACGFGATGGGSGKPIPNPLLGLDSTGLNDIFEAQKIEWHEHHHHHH
The assay can be described thus: ELISA, mAb at 10 nM.
Experimental: (§1) After removing the coating solution, unspecific binding was blocked by adding 200 μL of assay/blocking solution containing 1% bovine serum albumin (BSA) in phosphate buffered saline (PBS) pH 7.4 (ELISA diluent) and incubation at room temperature for one hour with agitation or overnight at 4° C. without agitation. Plates were then washed three times with 300 μL of PBS, 0.05% TWEEN®-20 (wash buffer). 100 μL of culture supernatant from individual hybridoma clones (or purified antibodies at the indicated concentration) was added to individual wells followed by incubation at room temperature for one hour with agitation. […] The plate was incubated at room temperature for one hour with agitation, washed six times with wash buffer and developed for 3-10 minutes by adding 50 μL/well of tetramethylbenzidine (TMB) microwell peroxidase substrate (Scytek Laboratories, Inc., Logan, UT, USA; catalogue number TM1999).
(§2) Binding domain mapping: Binding domain mapping of the 15 purified antibodies was carried out using the above-described ELISA assay with the following IL1RAP polypeptide constructs coated at 1 μg/ml on the assay plates: hu-M-IL1RAP, hu-M-IL1RAP-D1, hu-M-IL1RAP-D1D2, and hu-M-IL1RAP-D3.

The target of assay [4] is T3, hu-M-IL1RAP construct, positions S21-T367 (extracellular domain of the membrane form of human IL1RAP) (human, UniProt Q9NPH3 21-367).
T3 construct: Biotinylated when captured on the Biacore chip
T3 sequence: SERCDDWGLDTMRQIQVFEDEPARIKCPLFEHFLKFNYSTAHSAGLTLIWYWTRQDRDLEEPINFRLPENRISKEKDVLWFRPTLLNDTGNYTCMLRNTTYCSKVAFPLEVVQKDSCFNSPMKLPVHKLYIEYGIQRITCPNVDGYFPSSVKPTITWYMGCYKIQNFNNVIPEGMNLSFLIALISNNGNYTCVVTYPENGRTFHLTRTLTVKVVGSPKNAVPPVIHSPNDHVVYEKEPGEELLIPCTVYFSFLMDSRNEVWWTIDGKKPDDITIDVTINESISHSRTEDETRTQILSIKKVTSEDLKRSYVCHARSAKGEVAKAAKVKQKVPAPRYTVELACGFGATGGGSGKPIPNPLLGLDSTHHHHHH
The assay can be described thus: ELISA, mAb at 10 nM. (ELISA stands for enzyme-linked immunosorbent assay.)
Experimental: as §1, §2

The target in assay [5] is T3, hu-M-IL1RAP construct, positions …. The assay can be described thus: ELISA, hybridoma supernatant.
Experimental: as §1
Assay [6] addresses T4, mu-M-IL1RAP construct, positions S21-T367 (mouse, UniProt Q61730 21-367).
T4 construct: also called mo-M-IL1RAP; mouse-M-IL1RAP
T4 sequence: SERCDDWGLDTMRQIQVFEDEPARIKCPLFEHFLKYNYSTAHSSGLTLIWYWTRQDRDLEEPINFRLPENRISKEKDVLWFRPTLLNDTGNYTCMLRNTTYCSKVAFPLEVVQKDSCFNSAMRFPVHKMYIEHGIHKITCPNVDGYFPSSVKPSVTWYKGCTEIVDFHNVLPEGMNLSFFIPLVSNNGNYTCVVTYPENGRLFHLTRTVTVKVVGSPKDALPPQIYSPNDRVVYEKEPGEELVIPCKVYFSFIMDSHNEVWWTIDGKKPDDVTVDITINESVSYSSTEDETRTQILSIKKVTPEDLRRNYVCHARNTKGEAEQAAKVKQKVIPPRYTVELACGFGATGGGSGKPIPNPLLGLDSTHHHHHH
The assay can be described thus: ELISA, purified mAb.
Experimental: as §1

In assay [7] the target is T5, cyno-M-IL1RAP construct, positions S21-T367 (cynomolgus monkey, UniProt P59822 21-367 (rhesus entry)).
T5 construct: Biotinylated when captured on the Biacore chip; also called cy-M-IL1RAP
T5 sequence: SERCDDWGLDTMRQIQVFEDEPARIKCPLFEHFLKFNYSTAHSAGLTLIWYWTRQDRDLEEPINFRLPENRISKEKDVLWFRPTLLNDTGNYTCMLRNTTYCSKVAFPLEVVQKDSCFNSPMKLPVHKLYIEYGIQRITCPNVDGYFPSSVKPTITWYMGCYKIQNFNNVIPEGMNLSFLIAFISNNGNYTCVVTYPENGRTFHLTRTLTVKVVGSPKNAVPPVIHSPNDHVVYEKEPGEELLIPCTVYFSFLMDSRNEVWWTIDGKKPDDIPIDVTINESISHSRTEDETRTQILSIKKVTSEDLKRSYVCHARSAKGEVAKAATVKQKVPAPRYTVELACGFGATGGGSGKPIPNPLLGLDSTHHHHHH
The assay can be described thus: ELISA, purified mAb.
Experimental: as §1

The target in assay [8] is T6, hu-S-IL1RAP construct, positions S21-Q356 (soluble human IL1RAP) (human, UniProt Q9NPH3 21-350).
T6 sequence: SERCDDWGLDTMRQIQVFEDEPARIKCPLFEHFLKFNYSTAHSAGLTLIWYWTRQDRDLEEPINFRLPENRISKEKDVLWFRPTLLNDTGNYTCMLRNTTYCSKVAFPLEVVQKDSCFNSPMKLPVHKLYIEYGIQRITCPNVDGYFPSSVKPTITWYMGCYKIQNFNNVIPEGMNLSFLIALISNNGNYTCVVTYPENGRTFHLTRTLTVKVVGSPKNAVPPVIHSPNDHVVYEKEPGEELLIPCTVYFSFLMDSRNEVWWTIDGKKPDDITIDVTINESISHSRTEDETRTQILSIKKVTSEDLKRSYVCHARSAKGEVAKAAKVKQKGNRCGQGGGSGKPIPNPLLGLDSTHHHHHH
The assay can be described thus: ELISA, purified mAb.
Experimental: as §1

Assay [9] addresses T3, hu-M-IL1RAP construct, positions …. The assay can be described thus: ELISA, purified mAb.
Experimental: as §1
Assay [10] has as its target T5, cyno-M-IL1RAP construct, positions …. The assay can be described thus: BLI (OCTET), mAb on AMC sensor, 25 C.
Experimental: (§3) The BLI experimental format immobilizes the antibody on a biolayer surface with the IL1RAP antigen in solution. […] All samples were placed in black 96-well plates and the experiment was performed at 25° C. […] The biosensors were equilibrated in experimental buffer at 25° C. for ten minutes prior to starting the experiment.
(§4) The kinetics experiment was performed with the following steps, where the step name, solution and time are listed: Baseline (buffer—60 seconds), Loading (antibody—200 seconds), Baseline 2 (buffer—minimum 120 seconds), Association (analyte—200-300 seconds) and Dissociation (buffer—1000 seconds). The BLI signal resulting from analyte association and dissociation of the antigens from the immobilized antibody was analyzed using the OCTET® Data Analysis software (Pall ForteBio). First, a reference subtraction was performed on all recorded traces using the reference well (biosensor that underwent the same steps as experimental wells but no analyte for the Association step), then all the traces were aligned to the beginning of the Association step.
Assay [11] has as its target T3, hu-M-IL1RAP construct, positions …. The assay can be described thus: BLI (OCTET), mAb on AMC sensor, 25 C.
Experimental: as §3, §4
Assay [12] has as its target T1, human IL1RAP (hu-IL1RAP) on human cells. The assay can be described thus: cell-based or functional assay. The source holds these as a separate data set.

B1: 10A11 (purified mAb from hybridoma 10A11) (antibody, V domains shown)
VH: EVQLQQSGAELVKPGASVRLSCTSSGFNIKDYFMHWVKQRTEQGLEWVGRIDPEDGETQYAPNFQDKATITVDTSSNTVYLQLSSLTSEDTAVYYCFRPLYYGNSPWFAYWGQGTLVTVSP
VL: DIQMTQTTSSLSASLGDRVTISCRASQDISNYLNWYQQKPDGTVKLLIYYTSTLHSGVPSRFSGSGSGTDYSLTISNLEPEDIATYYCHQYSKFPPTFGSGTKLEIK
notes: Mouse hybridoma mAb
For B1, in assay [1], the “HEK-Blue, IL-1β, % inhibition at 100 nM” value was found to be 72%. In [1], the “HEK-Blue, IL-33, % inhibition at 100 nM” value worked out at 56%. Moreover, the “HEK-Blue SEAP, IL-1β, % inhibition (supernatant)” value in assay [2] came out at 53%. Further, the “HEK-Blue SEAP, IL-33, % inhibition (supernatant)” value in [2] was determined as 51%. Also, the A450 in [3] was 1.4 A450; in assay [4], 1.18 A450; in assay [5], 0.99 A450. In addition, in assay [6], the binding result was “no binding (tested: 20 nM (highest tested))”. Besides, the EC50 in assay [7] came out at 0.032 nM; in assay [8] it was 0.035 nM; in [9], 0.039 nM.

B2: 11C5(Hy) (purified mAb from the 11C5 hybridoma) (antibody, V domains shown)
VH: EVQLVESGGGLVKPGGSLKLSCAASGFTFSNYAMSWVRQTPEKRLEWVATVTEGGDYNYCLDDVKGRFTISRDNANDNLYLQMSHLKSEDSARYYCARDRWPYFFDYWGQGTTLTVSS
VL: DIQMTQSPASLSVSVGETVTITCRASENIYSNLAWYQQKQGRSPQLLVYGAKNLADGVPSRFSGSGSGTQYSLNINSLQSEDFGTYYCQHFWTTPRTFGGGTKLEIK
notes: Mouse hybridoma mAb; also called 11C5(Hy) mAb; mAb 11C5(Hy)
Turning to B2, in [1], the “HEK-Blue, IL-1β, % inhibition at 100 nM” value stood at 99% and the “HEK-Blue, IL-33, % inhibition at 100 nM” value turned out to be 93%. In [2], the “HEK-Blue SEAP, IL-1β, % inhibition (supernatant)” value is 84% and the “HEK-Blue SEAP, IL-33, % inhibition (supernatant)” value was 65%. In assay [3], the A450 worked out at 1.44 A450. Moreover, the A450 in assay [4] came out at 1.23 A450. Also, in assay [10], binding was characterised by a dissociation constant (Kd) of 0.142 nM, the koff stood at 5.74e-05 s⁻¹ and the kon came to 413000 M⁻¹ s⁻¹. In assay [11], this molecule yielded a Kd of 0.219 nM, a koff of 0.000103 s⁻¹ and a kon of 469000 M⁻¹ s⁻¹. Further, in assay [12], the “HEK-Blue, IL-1α, IC50” value was 4.7 nM; the “HEK-Blue, IL-1β, IC50” value came out at 1 nM; the “HEK-Blue, IL-33, IC50” value is 3.71 nM; the “HEK-Blue, IL-36α, IC50” value was determined as 2.52 nM. Further, in [12], the “HEK-Blue, IL-36β, IC50” value stood at 0.981 nM and the “HEK-Blue, IL-36γ, IC50” value came to 0.665 nM. In assay [5], this molecule showed an A450 of 1.44 A450. The binding result in assay [6] is “no binding (tested: 20 nM (highest tested))”. The molecule further gave an EC50 in assay [7] of 0.024 nM. For the same molecule, the EC50 in assay [8] worked out at 0.029 nM. In assay [9], the EC50 was 0.026 nM.

B3: 13D8 (purified mAb from hybridoma 13D8) (antibody, V domains shown)
VH: EVQLVESGGGLVKPGGSLKLSCTASGFTFSNYAMSWVRQTPEKRLEWVATISDGGNYTYYPDNVKGRFTISRDIAKNNLYLQMSHLKSEDTAMYYCARDRWPYFFDFWGQGTTLTVSS
VL: DIQMTQSPASLSVSVGETVTITCRASDNIYSNLAWYQEKQGKSPQLLVYGATNLADGVPSRFSGSGSGTQYSLKINSLQSEDFGSYYCQHFWTTPRSFGGGTKLELK
notes: Mouse hybridoma mAb
Consider B3, for which the “HEK-Blue, IL-1β, % inhibition at 100 nM” value in assay [1] turned out to be 89%. Moreover, the “HEK-Blue, IL-33, % inhibition at 100 nM” value in assay [1] was found to be 69%. Further, the “HEK-Blue SEAP, IL-1β, % inhibition (supernatant)” value in [2] was found to be 48%. Also, the “HEK-Blue SEAP, IL-33, % inhibition (supernatant)” value in [2] worked out at 33%. In addition, the A450 came to 1.46 A450 in assay [3], 1.12 A450 in assay [4] and 1.01 A450 in [5]. The binding result in assay [6] is recorded as “no binding (tested: 20 nM (highest tested))”. Also, the results for the EC50 in assay [7], in [8] and in assay [9] were 0.032 nM, 0.035 nM and 0.039 nM, respectively.
